The data set can be described thus: label from the status in PepcDB records.

For the sequence “MAYFHGTGSEPAWKQMELVALIGLAAVLLRGPIAAAWKTVASRSNERKRHQRDPAARVGKGAGSKINLAALQYANLKLALREHRCRRLPRLLVTGNDAAVSRLLPELEEAGWFDTCDALLLSSKTSNEGQPDTAWLKRLYKLRRRRPVDAVIVVTDGAADLPMPRRGTHPYSIRLARIIEILRYAAPVYVVDVAGMDPTVSSDAPIIVCALPNQADASAIEEALLLLRNQLARRGLDQLTQEDRYPYQARLSQRFDTRSKALAKWTAGLIAGQIAVRGIAFAPYPSGTSTKPEMPGSADLPHWRYLSEAARRQPGKRIGWHPMTVCVGFALVAVGLWFAGMLASGWFNSRDVYAAQQAVTEIGSARNPATRLHALLALQQQIERYEYRTQQHAPLLTRFGLNRDADVLAALWQPYVKASRELLVTPVQQNLEATLVDLGQLQTTTLDDKTSQWALSGRDDLKAYLMLAYPERTEADFLAGRLPHDWSTEARITPGEKQALAERLFKFYAQHLKANPDWKIEPRPELVAGARQTLLAVIGARSAQETLYRGILNGAGNKYPDLTLPSLTAGTDARGLLRSAAAVPGVFTRQAYEGYVADAIDAAATRRDVAADWVLTGSQVAAVTATKSADELRAALTEQYFAEYAAHWQDFMNSLQWESAATLPAAIDQLKLLADARQSPAIALMKSLAYQGGAGVQKTSLSDTLVNKAKDILGKKDDAPNSAKAAPAGPLDAAFGPVLRLAGQPGQAGQGGNNDLSLQRYLDRITALRLRLQQVSIGADADDQARQMAQAMFQGKSSDLADTQAYAQLVAASLGAEWAGMGETLFVRPVAQATQAIVLPAQASLNDVWQRFIMAEWNRIFAGRYPFANTTNDASLPELAQFLRPQGGTIQTFLATQLAGVLELQGDQWMPAAGARGITFDPEFLKTINILQRIGAHMLVQGDPQYRFELKPIATPGLTDTKLTIDGQKLHYYNQRETWNRMTWPASNLQDPGTLLQWQTEKAGTNKNYEYGGRFALLRMIGHGHIVPIDSATVQITWPAVPDTRGPLEESTDAQSGKAPYEIRFLMRSEAGQGVLELLPLRGLKLPQRVFLVGKGGAAVDVPSPAARNAKRGGV”, the protein production entry is reported as “failed”.

For the sequence “MCAEIPAMGPDLAIARAAAARWRKRAAEREQTRKTLDHQPAGHFTPVDSVDRLAKRAGRLQQWAAAIRALPPAAILGLPAAPPPTGGAADTREIDMVAPALSLRALAAERIIGETSDLLSVEFLEIGVAAARAVGLITTRGAPNGTGFLVAPDVVLTNNHVLPDVRTARASALEMDFETNRHGPRKEVQSFELDPDGFFLTDAPLDFTLVRVRPTSDGGQALSDYGFLPLIAAEGKIAVGEPLNIIQHPGGRVKQAALRNNRLLDLPPSNEADALNPDAVFHYETDTEKGSSGSPVFNDQWEVVALHHTGVPKTDASGAMIDADGRVVPDSQPERIVWIGNEGIRISRLYQYVFTFTFADPAMASVRDALIALWTDAGRPGWARTAAEAETIVHPPAALADPPPAAPAIIPLAEERGAAIAPDPADPAYARRPGFRSDFLGLPTPLPRLVDDSRGPLATFGEGVSELRYHHYSVLMNARRRLAYVAAVNIDHRAPFDVQRGTDRWFFDPRLPKRLQAGGDYYAANPLDRGHLVRRDDAAWGYTQAEAQLANDDTFHWTNCSPQHEVFNQSAKASGKGLLLWGNLENAVVDLAKATNGRLCVYNGPLFTEDDRPYRQDFFVPGAFWKLIALIDGQSRPRALAFRLSQAAQIADLPAEAFAPAELAAFTPVQIPVATLGALTGLDFGALAQWDPLAAGSDGVSKETLSPPRSIILTREADIVF”, the protein production entry was “failed”.

As to “MCAMSQEHQNPTPLPQVSDMAPVNPPKNQRYPRAVDLSLIECHCCGLLNQVDSDHSEQAHSRHCIRCHSPLHVRKPRSLDRTLALVIAASILYIPANVLPMTMTDSLLGRQQDTIMSGVIYFWQNSDYLVAVVIFMASIFIPMLKLIILCFLLIAVRMQESSKWHFLPEHCALLYRIVEFVGRWSMIDVFVVALLTALIQIQSLATILAGPGAVAFGAVVVLTMFASLSFDPRIIWDNYYKAQAKQHDPLQTIDNTSSISVEQ”, the protein production entry was “failed”.

In the case of “MCENEEYRERFPDKHFDLETVLQAKVRPICVVPERTFIGFFHREKSKEEEEKEDVSLDFLKGVMSFDSIWEEIMKQEPEESASEHVIYIVSWNDHYFVLLVNHDAYYIIDTLGERVYEGCNQAYVLKFDQDAEIKRLPSVIKDNKADMGSQKQGGKNKYEQPERSKESEEQGEEVVVCRGKESCREYIKSFLAAIPIQQVKADMKEGLVSSFHHRLQIELYYTKHLHHRQPNMFESSTTKVTVSEATVSMTVAWLLASQFSNSGGFGCEMAELLGIKV”, the protein production result is on record as “failed”.

Consider “MCGAWFFGARVFEFFTSLFESMKVLKLLPNFLTILRIVLSLFLLFLLLNTRTYFSFLTPFQTNMISSLVFLFAALTDLLDGYIARSYKAKSRFGEIFDPLADKILILSAFLGLVYLDRVNAWIPFVILGREFFISGLRVLAANEKKDIPVNALGKYKTVSQVVAIGALLADVTYSYALVAIAVFLTLYSGIDYTIKYYKS”, for which the protein production entry is recorded as “failed”.

(Values after a protein production outcome set (Wang et al. 2014).)
